Paper PMC4477602 (Journal of Biological Engineering, 2015)

Molecular target: T1, Wild type Clone A, soluble, C-terminal His6
T1 chain: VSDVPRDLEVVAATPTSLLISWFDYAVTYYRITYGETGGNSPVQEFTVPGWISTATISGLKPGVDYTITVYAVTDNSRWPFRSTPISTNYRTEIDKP
Assay: SEC; Superdex 75 10/300 GL, PBS pH 7.4, samples after Co2+ affinity resin; self-association (monomer, dimer, high MW oligomer in the void volume)
Conditions: both partners purified

B1: Wild type Clone A, soluble, C-terminal His6 (designed binder)
chain: VSDVPRDLEVVAATPTSLLISWFDYAVTYYRITYGETGGNSPVQEFTVPGWISTATISGLKPGVDYTITVYAVTDNSRWPFRSTPISTNYRTEIDKP
modifications: Glu47 (printed 45) taken from the text's description of wild type CA; Fig. S2 prints Asp / Glu47 (printed 45) taken from the text's description of wild type CA; Fig. S2 prints Asp
  stoichiometry N: 2
